{
  "source": "patent US20260224762A1",
  "about": "“RADIONUCLIDE LABELLED PEPTIDE CONJUGATE FOR SITE-SPECIFIC UPAR-TARGETING” (CURASIGHT A/S, priority 2023, published 2026)",
  "key": {"[1]": {"tested_on": "subcutaneous U87 MG tumors", "assay": "in vivo", "set-up": "species or system female NMRI nude mice", "conditions": "mouse", "experimental": "(§1) The biodistribution of 67Cu-DOTA-AE105 was evaluated in female NMRI nude mice bearing subcutaneous U87 MG tumors. The U87 MG tumor cell line is a human glioblastoma cell line. Animals were stratified into four groups (A, B, C, D) based on tumor volume and body weight on study day-2. Animals in group A were injected with 26.4±0.4 MBq, animals in group B received 55.1±0.2 MBq, animals in group C received 54.3±0.5 MBq and animals in group D received 55.2±0.2 MBq (mean±SEM). The biodistribution was evaluated using SPECT/CT imaging, 2H, 24H, 48H, 96H and 168H after injection. Furthermore, conventional ex vivo biodistribution was evaluated after final imaging timepoints 96H and 168H.\n(§2) The results are shown in FIG. 1 as percentage injected dose per gram (% ID/g) and are corrected for radioactive decay. The data in FIG. 1 are derived from the in vivo SPECT/CT imaging."}, "in vivo [2]": {"assay": "in vivo", "set-up": "species or system female NMRI nude mice", "conditions": "female, NMRI nude, mouse, iv, total radioactivity", "experimental": "as §1, §2"}, "[3]": {"tested_on": "subcutaneous U87 MG tumors", "assay": "in vivo", "set-up": "species or system female NMRI nude mice", "conditions": "mouse", "experimental": "(§3) The biodistribution of 225Ac-DOTA-AE105 was evaluated in female NMRI nude mice bearing subcutaneous U87 MG tumors. The U87 MG tumor cell line is a human glioblastoma cell line. Animals were stratified into two groups (A and B) based on tumor volume and body weight on study day-2. Animals in group A were injected with 30 kBq of 225Ac-DOTA-AE105 having a specific activity of 30 kBq/nmol, animals in group B received a thousand-fold dose of DOTA-AE105 (cold construct) immediately before receiving 30 kBq of 225Ac-DOTA-AE105 having a specific activity of 30 kBq/nmol. The biodistribution was evaluated using conventional ex vivo biodistribution 1 hour (1H) after injection. The results are shown in FIG. 10 as percentage injected dose per gram (% ID/g) and are corrected for radioactive decay.", "remark": "listed apart in the source"}, "in vivo [4]": {"assay": "in vivo", "set-up": "species or system female NMRI nude mice", "conditions": "female, NMRI nude, mouse, 30 kBq, total radioactivity", "experimental": "as §3"}, "[5]": {"tested_on": "subcutaneous U87 MG tumors", "assay": "Treatment efficacy of 177Lu-DOTA-AE105 in glioblastoma xenograft mice", "format": "in vivo, female NMRI nude mice", "conditions": "study day 18; group B 92.1 MBq p=0.32; group C three doses of about 30 MBq p=0.84", "experimental": "Furthermore, the efficacy of 177Lu-DOTA-AE105 was tested in female NMRI nude mice bearing subcutaneous U87 MG tumors.\nAnimals were stratified into three groups (A, B, and C) based on tumor volume and body weight on study day 0. The mean inclusion volume was […] (range 15.0-339.0 mm^3), while the inclusion weight was 23.6±0.4 g (range […]).\nAnimals were dosed with either vehicle (group A) or 177Lu-DOTA-AE105 (group B, and C) at different activity levels on study day 0. Animals in group B received 92.1±1.7 MBq, animals in group C received 32.9±0.4 MBq. At study day 4 animals in group C received an additional dosing with 26.7±0.2 MBq and at study day 8 animals in group C were dosed with 30.7±0.2 MBq. Doses are calculated by retracting residual dose from the activity measured before injection. No decay correction has been applied.\nTumor volume and body weight was monitored twice a week after the first dosing. The efficacy was evaluated over a period of 5 weeks after first dosing. Each of the treatment groups were compared to the vehicle control group A.\nDifferences in tumor volume were evaluated at the latest timepoint where minimum 50% of animals were alive within each of the compared groups."}, "tumor": {"tested_on": "tumor", "conditions": "in vivo; cited from earlier work"}, "[6]": {"set-up": "species or system female NMRI nude mice", "conditions": "mouse, in vivo, 50 MBq", "experimental": "The tumor binding and retention of 177Lu-DOTA-AE105 was evaluated in female NMRI nude mice bearing subcutaneous U87 MG tumors.\nAnimals were dosed with approximately 50 MBq 177Lu-DOTA-AE105 at study day 0. Tumor binding and retention of 177Lu-DOTA-AE105 was evaluated by SPECT/CT imaging at 0.5H, 2H and 24H after injection. The results for tumor binding and retention of 177Lu-DOTA-AE105 and the data for 67Cu-DOTA-AE105 from example 2 (table 5b) are summarized in table 6 below."}, "uPAR": {"molecular_target": "uPAR (Homo sapiens, UniProt Q03405)", "sequence (Q03405 23-305)": "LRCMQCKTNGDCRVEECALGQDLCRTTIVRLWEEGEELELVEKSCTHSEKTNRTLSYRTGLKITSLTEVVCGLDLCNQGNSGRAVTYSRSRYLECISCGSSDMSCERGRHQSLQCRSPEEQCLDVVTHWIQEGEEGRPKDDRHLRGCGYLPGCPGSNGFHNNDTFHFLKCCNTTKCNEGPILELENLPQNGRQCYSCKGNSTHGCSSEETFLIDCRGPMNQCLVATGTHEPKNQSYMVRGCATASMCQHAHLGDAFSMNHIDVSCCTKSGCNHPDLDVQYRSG", "assay": "uPAR binding by Surface Plasmon Resonance (SPR)", "conditions": "for SPR K(off) / SPR K(on): 18 degrees Celsius, HEPES pH 7.4", "experimental": "Characterization of the binding properties of lead (Pb) labelled DOTA-AE105 to its target i.e. uPAR was measured by Surface Plasmon Resonance (SPR) and expressed as the binding constant (KD), which is a measure of affinity of the conjugate towards its target.\nCharacterizing the interaction between a target protein (in this case uPAR) and a ligand by SPR is a well-known method for the skilled person.\nThe target protein uPAR was captured, via a protein tag, onto a sensor chip and the test compound (Pb2+-DOTA-AE105 and Cu2+-DOTA-AE105 respectively) were dissolved in running buffer (10 mM HEPES buffer at pH 7.4, 150 mM NaCl, […]+0.05% Tween-20) and prepared in 5-point concentration series with three-fold dilution with top concentration around 500 nM of the test compound. The assay was conducted at 18 degrees Celsius."}},
  "note": "Entries after “also recorded” stand apart in the source; their conditions may differ. Read-outs that look alike come from different tables or passages of the source.",
  "data": [
    {"smiles": "CC(C)C[C@H](NC(=O)[C@H](Cc1ccc(O)cc1)NC(=O)C(CCCNC(=N)N)NC(=O)C(CO)NC(=O)C(Cc1ccccc1)NC(=O)[C@H](CC1CCCCC1)NC(=O)[C@H](CC(=O)O)NC(=O)CN1CCN(CC(=O)O)CCN(CC(=O)O)CCN(CC(=O)O)CC1)C(=O)N[C@@H](Cc1c[nH]c2ccccc12)C(=O)N[C@@H](CO)C(N)=O", "note": "(single isomer, unassigned) [67Cu-DOTA-AE105, metal not drawn]", "values": [
      {"measurement": "Tumor binding, times higher compared to 177Lu-DOTA-AE105", "setting": "[1]", "value": "approximately 50 times"},
      {"measurement": "Uptake in other organs such as heart, kidney, and muscle", "setting": "[1]", "value": "low uptake"},
      {"measurement": "tissue uptake at 2 h", "setting": "in vivo [2]; 30 MBq", "value": "5.31 ± 0.73", "unit": "%ID/g"},
      {"measurement": "tissue uptake at 24 h", "setting": "in vivo [2]; 30 MBq", "value": "5.02 ± 0.08", "unit": "%ID/g"},
      {"measurement": "tissue uptake at 48 h", "setting": "in vivo [2]; 30 MBq", "value": "3.44 ± 0.11", "unit": "%ID/g"},
      {"measurement": "tissue uptake at 96 h", "setting": "in vivo [2]; 30 MBq", "value": "1.74 ± 0.22", "unit": "%ID/g"},
      {"measurement": "tissue uptake at 168 h", "setting": "in vivo [2]; 30 MBq", "value": "0.88 ± 0.15", "unit": "%ID/g"},
      {"measurement": "tissue uptake at 2 h", "setting": "in vivo [2]; 60 MBq", "value": "6.61 ± 1.11", "unit": "%ID/g"},
      {"measurement": "tissue uptake at 24 h", "setting": "in vivo [2]; 60 MBq", "value": "6.47 ± 0.5", "unit": "%ID/g"},
      {"measurement": "tissue uptake at 48 h", "setting": "in vivo [2]; 60 MBq", "value": "4.24 ± 0.14", "unit": "%ID/g"},
      {"measurement": "tissue uptake at 96 h", "setting": "in vivo [2]; 60 MBq", "value": "1.7 ± 0.07", "unit": "%ID/g"},
      {"measurement": "tissue uptake at 168 h", "setting": "in vivo [2]; 60 MBq", "value": "0.64 ± 0.05", "unit": "%ID/g"}
    ]},
    {"smiles": "CC(C)C[C@H](NC(=O)[C@H](Cc1ccc(O)cc1)NC(=O)C(CCCNC(=N)N)NC(=O)C(CO)NC(=O)C(Cc1ccccc1)NC(=O)[C@H](CC1CCCCC1)NC(=O)[C@H](CC(=O)O)NC(=O)CN1CCN(CC(=O)O)CCN(CC(=O)O)CCN(CC(=O)O)CC1)C(=O)N[C@@H](Cc1c[nH]c2ccccc12)C(=O)N[C@@H](CO)C(N)=O", "note": "(single isomer, unassigned) [225Ac-DOTA-AE105, metal not drawn]", "values": [
      {"measurement": "Tumor binding, times higher compared to 177Lu-DOTA-AE105", "setting": "[3]", "value": "approximately 5 times"},
      {"measurement": "tissue uptake at 1 h", "setting": "in vivo [4]", "value": 3, "unit": "%ID/g"}
    ]},
    {"smiles": "CC(C)C[C@H](NC(=O)[C@H](Cc1ccc(O)cc1)NC(=O)[C@@H](CCCNC(=N)N)NC(=O)[C@@H](CO)NC(=O)[C@H](Cc1ccccc1)NC(=O)[C@H](CC1CCCCC1)NC(=O)[C@H](CC(=O)O)NC(=O)CN1CCN(CC(=O)O)CCN(CC(=O)O)CCN(CC(=O)O)CC1)C(=O)N[C@@H](Cc1c[nH]c2ccccc12)C(=O)N[C@@H](CO)C(N)=O", "note": "[177Lu-DOTA-AE105, metal not drawn]", "values": [
      {"measurement": "Tumor volume compared to vehicle control group / therapeutic effect", "setting": "[5]", "value": "no significant difference; also recorded: did not show any therapeutical effect"},
      {"measurement": "Tumor binding and tumor retention compared to the peptide alone", "setting": "tumor", "value": "vastly decreased"},
      {"measurement": "tissue uptake at 0.5 h", "setting": "[6]", "value": "0.749 ± 0.166", "unit": "%ID/g"},
      {"measurement": "tissue uptake at 2 h", "setting": "[6]", "value": "0.128 ± 0.011", "unit": "%ID/g"},
      {"measurement": "tissue uptake at 24 h", "setting": "[6]", "value": "0.098 ± 0.001", "unit": "%ID/g"}
    ]},
    {"smiles": "CC(C)C[C@H](NC(=O)[C@H](Cc1ccc(O)cc1)NC(=O)[C@@H](CCCNC(=N)N)NC(=O)[C@@H](CO)NC(=O)[C@H](Cc1ccccc1)NC(=O)[C@H](CC1CCCCC1)NC(=O)[C@@H](CC(=O)O)NC(=O)CN1CCN(CC(=O)O)CCN(CC(=O)O)CCN(CC(=O)O)CC1)C(=O)N[C@@H](Cc1c[nH]c2ccccc12)C(=O)N[C@@H](CO)C(N)=O", "note": "[Cu2+-DOTA-AE105]", "values": [
      {"measurement": "SPR K(off)", "setting": "uPAR", "value": 19.95},
      {"measurement": "SPR K(on)", "setting": "uPAR", "value": 0.110}
    ]},
    {"smiles": "CC(C)C[C@H](NC(=O)[C@H](Cc1ccc(O)cc1)NC(=O)[C@@H](CCCNC(=N)N)NC(=O)[C@@H](CO)NC(=O)[C@H](Cc1ccccc1)NC(=O)[C@H](CC1CCCCC1)NC(=O)[C@@H](CC(=O)O)NC(=O)CN1CCN(CC(=O)O)CCN(CC(=O)O)CCN(CC(=O)O)CC1)C(=O)N[C@@H](Cc1c[nH]c2ccccc12)C(=O)N[C@@H](CO)C(N)=O", "note": "[Pb2+-DOTA-AE105]", "values": [
      {"measurement": "SPR K(off)", "setting": "uPAR", "value": 1.78},
      {"measurement": "SPR K(on)", "setting": "uPAR", "value": 0.102},
      {"measurement": "Affinity fold higher than Cu2+-DOTA-AE105", "setting": "uPAR; ratio of KD", "value": "more than 10 fold"}
    ]}
  ]
}
